FireProtDB (doi:10.1002/prot.20309)

Conditions: 25 °C, GdnHCl, Phosphate 10 mM, whole UniProt chain shown
[1] = Bos taurus, pH 2, CD, transition: 3

Protein | denaturant m value (Sus scrofa, pH 2, Fluorescence) | denaturant midpoint (higher = more stable) (Sus scrofa, pH 2, Fluorescence) | unfolding free energy (Sus scrofa, pH 2, Fluorescence) | denaturant m value (Sus scrofa, pH 2, NMR) | denaturant midpoint (higher = more stable) (Sus scrofa, pH 2, NMR) | unfolding free energy (Sus scrofa, pH 2, NMR) | denaturant m value (Sus scrofa, pH 6, NMR) | denaturant midpoint (higher = more stable) (Sus scrofa, pH 6, NMR) | unfolding free energy (Sus scrofa, pH 6, NMR) | denaturant m value [1] | denaturant midpoint (higher = more stable) [1] | unfolding free energy [1] | denaturant m value (Bos taurus, pH 6, CD) | denaturant midpoint (higher = more stable) (Bos taurus, pH 6, CD) | unfolding free energy (Bos taurus, pH 6, CD)
Beta-lactoglobulin-1A/1C wild type, P04119 (protein) MRCLLLTLGLALLCGVQAVEVTPIMTELDTQKVAGTWHTVAMAVSDVSLLDAKSSPLKAYVEGLKPTPEGDLEILLQKRENDKCAQEVLLAKKTDIPAVFKINALDENQLFLLDTDYDSHLLLCMENSASPEHSLVCQSLARTLEVDDQIREKFEDALKTLSVPMRILPAQLEEQCRV | 2.2 kcal/mol/M | 1 M | 2.1 kcal/mol | 3.5 kcal/mol/M | 0.7 M | 2.3 kcal/mol | 4.2 kcal/mol/M | 1.1 M | 4.6 kcal/mol |  |  |  |  |  | 
Beta-lactoglobulin wild type, P02754 (protein) MKCLLLALALTCGAQALIVTQTMKGLDIQKVAGTWYSLAMAASDISLLDAQSAPLRVYVEELKPTPEGDLEILLQKWENGECAQKKIIAEKTKIPAVFKIDALNENKVLVLDTDYKKYLLFCMENSAEPEQSLACQCLVRTPEVDDEALEKFDKALKALPMHIRLSFNPTQLEEQCHI |  |  |  |  |  |  |  |  |  | 1 kcal/mol/M | 3.8 M | 12.8 kcal/mol | 4.1 kcal/mol/M | 2.8 M | 11.5 kcal/mol
